From the MegaScale stability set (Tsuboyama et al. 2023)

B1: 2M8U (parent)
chain: TKAQVIEAFKVFDRDGNGYVTVDYLRKVLNELGDMMPADEIEEMIYEADPQNSGYVQYETFVGMLFL

Variants of: B1
Experiment: folding stability dG (cDNA display proteolysis); higher = more stable
Details: PBS, room temperature

Row | Variant | folding stability dG [kcal/mol]
1 | TEAQVIEAFKVFDRDGNGYVTVDYLRKVLNELGDMMPADEIEEMIYEADPQNSGYVQYETFVGMLFL [K2E] | 3.07
2 | THAQVIEAFKVFDRDGNGYVTVDYLRKVLNELGDMMPADEIEEMIYEADPQNSGYVQYETFVGMLFL [K2H] | 3.11
3 | TYAQVIEAFKVFDRDGNGYVTVDYLRKVLNELGDMMPADEIEEMIYEADPQNSGYVQYETFVGMLFL [K2Y] | 3.24
4 | TAAQVIEAFKVFDRDGNGYVTVDYLRKVLNELGDMMPADEIEEMIYEADPQNSGYVQYETFVGMLFL [K2A] | 3.47
5 | TNAQVIEAFKVFDRDGNGYVTVDYLRKVLNELGDMMPADEIEEMIYEADPQNSGYVQYETFVGMLFL [K2N] | 2.56
6 | TWAQVIEAFKVFDRDGNGYVTVDYLRKVLNELGDMMPADEIEEMIYEADPQNSGYVQYETFVGMLFL [K2W] | 2.67
7 | TTAQVIEAFKVFDRDGNGYVTVDYLRKVLNELGDMMPADEIEEMIYEADPQNSGYVQYETFVGMLFL [K2T] | 2.79
8 | TRAQVIEAFKVFDRDGNGYVTVDYLRKVLNELGDMMPADEIEEMIYEADPQNSGYVQYETFVGMLFL [K2R] | 3.02
9 | TGAQVIEAFKVFDRDGNGYVTVDYLRKVLNELGDMMPADEIEEMIYEADPQNSGYVQYETFVGMLFL [K2G] | 2.52
10 | TPAQVIEAFKVFDRDGNGYVTVDYLRKVLNELGDMMPADEIEEMIYEADPQNSGYVQYETFVGMLFL [K2P] | 3.2
11 | TLAQVIEAFKVFDRDGNGYVTVDYLRKVLNELGDMMPADEIEEMIYEADPQNSGYVQYETFVGMLFL [K2L] | 3.3
12 | TVAQVIEAFKVFDRDGNGYVTVDYLRKVLNELGDMMPADEIEEMIYEADPQNSGYVQYETFVGMLFL [K2V] | 3.4
13 | TDAQVIEAFKVFDRDGNGYVTVDYLRKVLNELGDMMPADEIEEMIYEADPQNSGYVQYETFVGMLFL [K2D] | 2.24
14 | TMAQVIEAFKVFDRDGNGYVTVDYLRKVLNELGDMMPADEIEEMIYEADPQNSGYVQYETFVGMLFL [K2M] | 3.65
15 | TIAQVIEAFKVFDRDGNGYVTVDYLRKVLNELGDMMPADEIEEMIYEADPQNSGYVQYETFVGMLFL [K2I] | 3.46
16 | TSAQVIEAFKVFDRDGNGYVTVDYLRKVLNELGDMMPADEIEEMIYEADPQNSGYVQYETFVGMLFL [K2S] | 2.98
17 | TFAQVIEAFKVFDRDGNGYVTVDYLRKVLNELGDMMPADEIEEMIYEADPQNSGYVQYETFVGMLFL [K2F] | 2.94
18 | TCAQVIEAFKVFDRDGNGYVTVDYLRKVLNELGDMMPADEIEEMIYEADPQNSGYVQYETFVGMLFL [K2C] | 3.6
19 | TKALVIEAFKVFDRDGNGYVTVDYLRKVLNELGDMMPADEIEEMIYEADPQNSGYVQYETFVGMLFL [Q4L] | 3.21
20 | TKAKVIEAFKVFDRDGNGYVTVDYLRKVLNELGDMMPADEIEEMIYEADPQNSGYVQYETFVGMLFL [Q4K] | 3.38
21 | TKAVVIEAFKVFDRDGNGYVTVDYLRKVLNELGDMMPADEIEEMIYEADPQNSGYVQYETFVGMLFL [Q4V] | 3.02
22 | TKAPVIEAFKVFDRDGNGYVTVDYLRKVLNELGDMMPADEIEEMIYEADPQNSGYVQYETFVGMLFL [Q4P] | 2.35
23 | TKANVIEAFKVFDRDGNGYVTVDYLRKVLNELGDMMPADEIEEMIYEADPQNSGYVQYETFVGMLFL [Q4N] | 3.09
24 | TKAHVIEAFKVFDRDGNGYVTVDYLRKVLNELGDMMPADEIEEMIYEADPQNSGYVQYETFVGMLFL [Q4H] | 3.12
25 | TKATVIEAFKVFDRDGNGYVTVDYLRKVLNELGDMMPADEIEEMIYEADPQNSGYVQYETFVGMLFL [Q4T] | 3.04
26 | TKAMVIEAFKVFDRDGNGYVTVDYLRKVLNELGDMMPADEIEEMIYEADPQNSGYVQYETFVGMLFL [Q4M] | 3.31
27 | TKACVIEAFKVFDRDGNGYVTVDYLRKVLNELGDMMPADEIEEMIYEADPQNSGYVQYETFVGMLFL [Q4C] | 3.56

Row | Variant | folding stability dG [kcal/mol]
28 | TKAAVIEAFKVFDRDGNGYVTVDYLRKVLNELGDMMPADEIEEMIYEADPQNSGYVQYETFVGMLFL [Q4A] | 3.53
29 | TKASVIEAFKVFDRDGNGYVTVDYLRKVLNELGDMMPADEIEEMIYEADPQNSGYVQYETFVGMLFL [Q4S] | 3.47
30 | TKARVIEAFKVFDRDGNGYVTVDYLRKVLNELGDMMPADEIEEMIYEADPQNSGYVQYETFVGMLFL [Q4R] | 3.34
31 | TKAFVIEAFKVFDRDGNGYVTVDYLRKVLNELGDMMPADEIEEMIYEADPQNSGYVQYETFVGMLFL [Q4F] | 2.87
32 | TKAGVIEAFKVFDRDGNGYVTVDYLRKVLNELGDMMPADEIEEMIYEADPQNSGYVQYETFVGMLFL [Q4G] | 2.99
33 | TKAIVIEAFKVFDRDGNGYVTVDYLRKVLNELGDMMPADEIEEMIYEADPQNSGYVQYETFVGMLFL [Q4I] | 3.15
34 | TKADVIEAFKVFDRDGNGYVTVDYLRKVLNELGDMMPADEIEEMIYEADPQNSGYVQYETFVGMLFL [Q4D] | 3.28
35 | TKAWVIEAFKVFDRDGNGYVTVDYLRKVLNELGDMMPADEIEEMIYEADPQNSGYVQYETFVGMLFL [Q4W] | 3.08
36 | TKAYVIEAFKVFDRDGNGYVTVDYLRKVLNELGDMMPADEIEEMIYEADPQNSGYVQYETFVGMLFL [Q4Y] | 2.97
37 | TKAEVIEAFKVFDRDGNGYVTVDYLRKVLNELGDMMPADEIEEMIYEADPQNSGYVQYETFVGMLFL [Q4E] | 3.41
38 | WKAQVIEAFKVFDRDGNGYVTVDYLRKVLNELGDMMPADEIEEMIYEADPQNSGYVQYETFVGMLFL [T1W] | 3.1
39 | NKAQVIEAFKVFDRDGNGYVTVDYLRKVLNELGDMMPADEIEEMIYEADPQNSGYVQYETFVGMLFL [T1N] | 3.18
40 | RKAQVIEAFKVFDRDGNGYVTVDYLRKVLNELGDMMPADEIEEMIYEADPQNSGYVQYETFVGMLFL [T1R] | 3.33
41 | PKAQVIEAFKVFDRDGNGYVTVDYLRKVLNELGDMMPADEIEEMIYEADPQNSGYVQYETFVGMLFL [T1P] | 2.6
42 | SKAQVIEAFKVFDRDGNGYVTVDYLRKVLNELGDMMPADEIEEMIYEADPQNSGYVQYETFVGMLFL [T1S] | 3.34
43 | QKAQVIEAFKVFDRDGNGYVTVDYLRKVLNELGDMMPADEIEEMIYEADPQNSGYVQYETFVGMLFL [T1Q] | 3.13
44 | YKAQVIEAFKVFDRDGNGYVTVDYLRKVLNELGDMMPADEIEEMIYEADPQNSGYVQYETFVGMLFL [T1Y] | 2.83
45 | VKAQVIEAFKVFDRDGNGYVTVDYLRKVLNELGDMMPADEIEEMIYEADPQNSGYVQYETFVGMLFL [T1V] | 3.32
46 | TKCQVIEAFKVFDRDGNGYVTVDYLRKVLNELGDMMPADEIEEMIYEADPQNSGYVQYETFVGMLFL [A3C] | 3.48
47 | TKWQVIEAFKVFDRDGNGYVTVDYLRKVLNELGDMMPADEIEEMIYEADPQNSGYVQYETFVGMLFL [A3W] | 2.9
48 | TKPQVIEAFKVFDRDGNGYVTVDYLRKVLNELGDMMPADEIEEMIYEADPQNSGYVQYETFVGMLFL [A3P] | 2.67
49 | TKEQVIEAFKVFDRDGNGYVTVDYLRKVLNELGDMMPADEIEEMIYEADPQNSGYVQYETFVGMLFL [A3E] | 3.69
50 | TKRQVIEAFKVFDRDGNGYVTVDYLRKVLNELGDMMPADEIEEMIYEADPQNSGYVQYETFVGMLFL [A3R] | 3.23
51 | TKHQVIEAFKVFDRDGNGYVTVDYLRKVLNELGDMMPADEIEEMIYEADPQNSGYVQYETFVGMLFL [A3H] | 3.22
52 | TKFQVIEAFKVFDRDGNGYVTVDYLRKVLNELGDMMPADEIEEMIYEADPQNSGYVQYETFVGMLFL [A3F] | 3
53 | TKDQVIEAFKVFDRDGNGYVTVDYLRKVLNELGDMMPADEIEEMIYEADPQNSGYVQYETFVGMLFL [A3D] | 3.28
54 | TKLQVIEAFKVFDRDGNGYVTVDYLRKVLNELGDMMPADEIEEMIYEADPQNSGYVQYETFVGMLFL [A3L] | 3.21

Row | Variant | folding stability dG [kcal/mol]
55 | TKKQVIEAFKVFDRDGNGYVTVDYLRKVLNELGDMMPADEIEEMIYEADPQNSGYVQYETFVGMLFL [A3K] | 3.31
56 | TKYQVIEAFKVFDRDGNGYVTVDYLRKVLNELGDMMPADEIEEMIYEADPQNSGYVQYETFVGMLFL [A3Y] | 2.81
57 | TKQQVIEAFKVFDRDGNGYVTVDYLRKVLNELGDMMPADEIEEMIYEADPQNSGYVQYETFVGMLFL [A3Q] | 3.56
58 | TKSQVIEAFKVFDRDGNGYVTVDYLRKVLNELGDMMPADEIEEMIYEADPQNSGYVQYETFVGMLFL [A3S] | 3.46
59 | TKTQVIEAFKVFDRDGNGYVTVDYLRKVLNELGDMMPADEIEEMIYEADPQNSGYVQYETFVGMLFL [A3T] | 3.14
60 | TKMQVIEAFKVFDRDGNGYVTVDYLRKVLNELGDMMPADEIEEMIYEADPQNSGYVQYETFVGMLFL [A3M] | 3.24
61 | TKVQVIEAFKVFDRDGNGYVTVDYLRKVLNELGDMMPADEIEEMIYEADPQNSGYVQYETFVGMLFL [A3V] | 3.2
62 | TKGQVIEAFKVFDRDGNGYVTVDYLRKVLNELGDMMPADEIEEMIYEADPQNSGYVQYETFVGMLFL [A3G] | 2.93
63 | TKNQVIEAFKVFDRDGNGYVTVDYLRKVLNELGDMMPADEIEEMIYEADPQNSGYVQYETFVGMLFL [A3N] | 3.25
64 | TKIQVIEAFKVFDRDGNGYVTVDYLRKVLNELGDMMPADEIEEMIYEADPQNSGYVQYETFVGMLFL [A3I] | 3.27
65 | TKAQQIEAFKVFDRDGNGYVTVDYLRKVLNELGDMMPADEIEEMIYEADPQNSGYVQYETFVGMLFL [V5Q] | 2.09
66 | TKAQMIEAFKVFDRDGNGYVTVDYLRKVLNELGDMMPADEIEEMIYEADPQNSGYVQYETFVGMLFL [V5M] | 3.85
67 | TKAQRIEAFKVFDRDGNGYVTVDYLRKVLNELGDMMPADEIEEMIYEADPQNSGYVQYETFVGMLFL [V5R] | 1.91
68 | TKAQSIEAFKVFDRDGNGYVTVDYLRKVLNELGDMMPADEIEEMIYEADPQNSGYVQYETFVGMLFL [V5S] | 2.1
69 | TKAQHIEAFKVFDRDGNGYVTVDYLRKVLNELGDMMPADEIEEMIYEADPQNSGYVQYETFVGMLFL [V5H] | 2.36
70 | TKAQIIEAFKVFDRDGNGYVTVDYLRKVLNELGDMMPADEIEEMIYEADPQNSGYVQYETFVGMLFL [V5I] | 3.81
71 | TKAQAIEAFKVFDRDGNGYVTVDYLRKVLNELGDMMPADEIEEMIYEADPQNSGYVQYETFVGMLFL [V5A] | 2.77
72 | TKAQFIEAFKVFDRDGNGYVTVDYLRKVLNELGDMMPADEIEEMIYEADPQNSGYVQYETFVGMLFL [V5F] | 3.59
73 | TKAQGIEAFKVFDRDGNGYVTVDYLRKVLNELGDMMPADEIEEMIYEADPQNSGYVQYETFVGMLFL [V5G] | 1.89
74 | TKAQKIEAFKVFDRDGNGYVTVDYLRKVLNELGDMMPADEIEEMIYEADPQNSGYVQYETFVGMLFL [V5K] | 1.82
75 | TKAQNIEAFKVFDRDGNGYVTVDYLRKVLNELGDMMPADEIEEMIYEADPQNSGYVQYETFVGMLFL [V5N] | 2.04
76 | TKAQPIEAFKVFDRDGNGYVTVDYLRKVLNELGDMMPADEIEEMIYEADPQNSGYVQYETFVGMLFL [V5P] | 1.77
77 | TKAQDIEAFKVFDRDGNGYVTVDYLRKVLNELGDMMPADEIEEMIYEADPQNSGYVQYETFVGMLFL [V5D] | 1.89
78 | TKAQLIEAFKVFDRDGNGYVTVDYLRKVLNELGDMMPADEIEEMIYEADPQNSGYVQYETFVGMLFL [V5L] | 3.95
79 | TKAQCIEAFKVFDRDGNGYVTVDYLRKVLNELGDMMPADEIEEMIYEADPQNSGYVQYETFVGMLFL [V5C] | 3.17
80 | TKAQEIEAFKVFDRDGNGYVTVDYLRKVLNELGDMMPADEIEEMIYEADPQNSGYVQYETFVGMLFL [V5E] | 1.95
